B1: Azoarcus group I ribozyme (parent)
chain: GUGCCUUGCGCCGGGAAACCACGCAAGGGAUGGUGUCAAAUUCGGCGAAACCUAAGCGCCCGCCCGGGCGUAUGGCAACGCCGAGCCAAGCUUCGGCGCCUGCGCCGAUGAAGGUGUAGAGACUAGACGGCACCCACCUAAGGCAAACGCUAUGGUGAAGGCAUAGUCCAGGGAGUGGCGAAAGUCACACAAACCGG

Variants of: B1
Assay: reverse-splicing fitness (ratio to wild type); higher = more active; in vitro selection; Mg2+ level not given
Procedure, shortened: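 An in vitro group I ribozyme library with randomized positions was T7-transcribed and gel-purified. In triplicate, 10 pmol RNA in EPPS pH 7.5 was reacted with 50 pmoles of a 30-nt RNA substrate for 1 h at 37 °C across several added MgCl2 levels (1–48 mM), then stopped with EDTA. Products were reverse transcribed from a substrate-complementary primer, PCR-amplified and sequenced (HiSeq 4000). Fitness is a variant's read proportion after selection over that before, normalised to wild type.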

Variant	reverse-splicing fitness
C82G A111G A120U A145G C169G U176A	0.00491
C82G A111G A120U A145G C169G U176G	0.00184
C82G A111G A120U A145G C169G U176C	0.00531
C82G A111G A120U A145C C150A C169G U176G	0.0019
C82G A111G A120U A145C C150A C169G U176A	0.00277
C82G A111G A120U A145C C150A C169G U176C	0.00215
C82G A111G A120U A145G C150G C169A U176G	0.00448
C82G A111G A120U A145G C150G C169A U176C	0.0099
C82G A111G A120U A145G C150G C169A U176A	0.0115
C82G A111G A120U A145C C150U C169G	0.00281
C82G A111G A120U A145C C150U C169A	0.00231
C82G A111G A120U A145C C150U C169U	0.00328
C82G A111G A120U A145G C169U U176G	0.00164
C82G A111G A120U A145G C169U U176A	0.00415
C82G A111G A120U A145G C169U U176C	0.00485
C82G A111G A120U A145C C150U C169G U176A	0.00296
C82G A111G A120U A145C C150U C169G U176G	0.00185
C82G A111G A120U A145C C150U C169G U176C	0.0031
C82G A111G A120U A145G C150G C169G U176C	0.00607
C82G A111G A120U A145G C150G C169G U176A	0.00894
C82G A111G A120U A145G C150G C169G U176G	0.00372

Variant	reverse-splicing fitness
C82G A111G A120U A145G C169U	0.00538
C82G A111G A120U A145G C169G	0.00538
C82G A111G A120U A145G C169A	0.00466
C82G A111G A120U A145C C169A U176G	0.00182
C82G A111G A120U A145C C169A U176A	0.00186
C82G A111G A120U A145C C169A U176C	0.00168
C82G A111G A120U A145U	0.0713
C82G A111G A120U A145G	0.0663
C82G A111G A120U A145C U176A	0.0131
C82G A111G A120U A145C U176G	0.0054
C82G A111G A120U A145C U176C	0.0205
C82G A111G A120U A145G U176G	0.00435
C82G A111G A120U A145G U176A	0.0143
C82G A111G A120U A145G U176C	0.0283
C82G A111G A120U A145C C150U C169U U176G	0.00214
C82G A111G A120U A145C C150U C169U U176A	0.00258
C82G A111G A120U A145C C150U C169U U176C	0.00268
C82G A111G A120U A145C C169U U176A	0.00244
C82G A111G A120U A145C C169U U176C	0.00228
C82G A111G A120U A145C C169U U176G	0.00131
C82G A111G A120U A145C C150A C169A U176G	0.00204

Variant	reverse-splicing fitness
C82G A111G A120U A145U C150G C169A U176G	0.00219
C82G A111G A120U A145U C150G C169A U176A	0.00415
C82G A111G A120U A145U C150G C169A U176C	0.00298
C82G A111G A120U A145U C150G C169U U176A	0.00283
C82G A111G A120U A145U C150G C169U U176G	0.00239
C82G A111G A120U A145U C150G C169U U176C	0.00309
C82G A111G A120U A145C C169G	0.00347
C82G A111G A120U A145C C169U	0.00478
C82G A111G A120U A145C C169A	0.00211
C82G A111G A120U A145G C150A C169G U176C	0.00625
C82G A111G A120U A145G C150A C169G U176A	0.0128
C82G A111G A120U A145G C150A C169G U176G	0.00219
C82G A111G A120U A145G C150U C169U U176G	0.00229
C82G A111G A120U A145G C150U C169U U176C	0.00574
C82G A111G A120U A145G C150U C169U U176A	0.00467
C82G A111G A120U A145G C150U U176A	0.0125
C82G A111G A120U A145G C150U U176C	0.0196
C82G A111G A120U A145G C150U U176G	0.00429
C82G A111G A120U A145U C150G U176A	0.00457
C82G A111G A120U A145U C150G U176G	0.00264
C82G A111G A120U A145U C150G U176C	0.00556

Variant	reverse-splicing fitness
C82G A111G A120U A145U C150A C169G U176G	0.00181
C82G A111G A120U A145U C150A C169G U176A	0.00229
C82G A111G A120U A145U C150A C169G U176C	0.00301
C82G A111G A120U A145U C150G C169U	0.00254
C82G A111G A120U A145U C150G C169A	0.00331
C82G A111G A120U A145U C150G C169G	0.003
C82G A111G A120U A145U C150G C169G U176A	0.0025
C82G A111G A120U A145U C150G C169G U176C	0.00256
C82G A111G A120U A145U C150G C169G U176G	0.00197
C82G A111G A120U A145C C150U	0.0153
C82G A111G A120U A145C C150G	0.00878
C82G A111G A120U A145U C150U C169G U176G	0.00218
C82G A111G A120U A145U C150U C169G U176C	0.00343
C82G A111G A120U A145U C150U C169G U176A	0.0031
C82G A111G A120U A145G C150G U176C	0.00834
C82G A111G A120U A145G C150G U176A	0.00561
C82G A111G A120U A145G C150G U176G	0.00375
C82G A111G A120U A145U C150A C169A	0.00193
C82G A111G A120U A145U C150A C169G	0.0027
C82G A111G A120U A145U C150A C169U	0.0024

Reference: the RNAGym collection of RNA variant scans (doi:10.1093/molbev/msab373)
